Measured values: a protein production outcome set (Wang et al. 2014)

Assay: label from the status in PepcDB records
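Further: failed if final PepcDB status was selected cloned or expressed and not failed if soluble or beyond.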

With “MEELQEPLRGQLRLCFTQAARTSLLLLRLNDAALRALQECQRQQVRPVIAFQGHRGYLRLPGPGWSCLFSFIVSQCCQEGAGGSLDLVCQRFLRSGPNSLHCLGSLRERLIIWAAMDSIPAPSSVQGHNLTEDARHPESWQNTGGYSEGDAVSQPQMALEEVSVSDPLASNQGQSLPGSSREHMAQWEVRSQTHVPNREPVQALPSSASRKRLDKKRSVPVATVELEEKRFRTLPLVPSPLQGLTNQDLQEGEDWEQEDEDMDPRLEHSSSVQEDSESPSPEDIPDYLLQYRAIHSAEQQHAYEQDFETDYAEYRILHARVGTASQRFIELGAEIKRVRRGTPEYKVLEDKIIQEYKKFRKQYPSYREEKRRCEYLHQKLSHIKGLILEFEEKNRGS” as the sequence, how does the protein production read?
Its protein production is “failed”.

With “MEELSAAEPGPEPGPEPESAPESESEPGPAGAGDAPGDGVIVTRALTKRYRGGQLAVDGLDLTVPAGSVFGFLGPNGSGKTTTIRMLMGLIEPTSGTARVLGRPMPRSARTVLPHIGALIEGPALYGFLSGRDNLLRYDAADPTADPRTRRTRVAATLDRVGLTAAAGKKAKAYSLGMKQRLGLAAALLQPRRLLVLDEPTNGLDPQGMREIRSLVRELASDGTTVFLSSHLLDEIEQVCTHAAVMAQGRLITQGAVADLAAGARGRLVVTTPDVTDAARVLKEQGVADIVVAEDRVTGEPPDGELAELNAALVTAAVRVRGFGVERASLEDAFVALTGEGFDVAGLEHHHHHH” as the sequence, how does the protein production read?
Its protein production is “failed”.

For “MEELTQILKNNRTDDLTWFCSLSESELDLLISLKKLAIQRAKISGHQELADKFDLKLLRSLGLVLMEHARKRVQNDTSLAPSVVHQLRLLDNCNLLKTHVDDAVDIEEILTQICDNKSKKKARKRRR”, which protein production is on record?
Its protein production is “failed”.

With “MEERMEMISERPKESMYSWNKTAEKSDFEAVEALMSMSCSWKSDFKKYVENRPVTPVSDLSEEENLLPGTPDFHTIPAFCLTPPYSPSDFEPSQVSNLMAPAPSTVHFKSLSDTAKPHIAAPFKEEEKSPVSAPKLPKAQATSVIRHTADAQLCNHQTCPMKAASILNYQNNSFRRRTHLNVEAARKNIPCAAVSPNRSKCERNTVADVDEKASAALYDFSVPSSETVICRSQPAPVSPQQKSVLVSPPAVSAGGVPPMPVICQMVPLPANNPVVTTVVPSTPPSQPPAVCPPVVFMGTQVPKGAVMFVVPQPVVQSSKPPVVSPNGTRLSPIAPAPGFSPSAAKVTPQIDSSRIRSHICSHPGCGKTYFKSSHLKAHTRTHTGEKPFSCSWKGCERRFARSDELSRHRRTHTGEKKFACPMCDRRFMRSDHLTKHARRHLSAKKLPNWQMEVSKLNDIALPPTPAPTQ” as the sequence, how does the protein production read?
Its protein production is “not failed”.

Which protein production does the source give for “MEESLKVGIAGLGTVGSSVVRILREKANSLTCQCGRSIKVVAVSARDKSRNRGIDLSDVKWFDSPVEMASSDEIDVFVELIGGESDVVYAAVKKALETGHHVVTANKALLAQHGGRLAVSAEKKGVFLHFEAAVAGGIPIIKVMRESLVSNHISRIYGILNGTCNYILTRMFTEGLSFKECLEDAQRLGYAEVDPTFDIGGNDTAHKLALLTSLAFGTAVSLDDIYVEGISNISQIDIRAADELGYRIKLLGVALKTETGIEQRVHPTMVPTSSMIAQIHGVTNALSIQSDLLGELLLSGPGAGGTATASAVIGDLADIAKARPGFQYAPVLGRPALGLAPHKKARISHHAGGYFIRLNVHDRAGVFAAVAKHMAGNHISLESIVQRSFVESQSVKTIILITHETTEVNVQQALAAIEKDGHLVAKSQFIRIEPMVLEHHHHHH” here?
The protein production was “failed”.

With “MEETRPIDGLTDEDIREILTRYKKIALVGASPKPERDANIVMKYLLEHGYDVYPVNPKYEEVLGRKCYPSVLDIPDKIEVVDLFVKPKLTMEYVEQAIKKGAKVVWFQYNTYNREASKKADEAGLIIVANRCMMREHERLLGEK” as the sequence, how does the protein production read?
Its protein production is “not failed”.

With “MEEVLPNVYLIDTLKYVEPGVISAYAVVHERAAIIDPGTAKGAEIILDEIDRSWNVEYICPTHIHIDHGGGAARLAKALDAKIIVHPRGVKHVVNPEKLWEASKAVLGEVAEIYGKPESIDESKVIAVEDEQEFDLGGERLKVFHAPGHAPHMLVYYLTNSKVLFPADAVGMCFGGVVFPLTPPPFDADAALKTLKRLKGLKVDYVAFTHYGVVEGDWPIAKSYEKVKSWLEIAKEVANANGTVEEFVGRLRKEDEDVEKLFNVLGSKPVALSFIYTSATGMLDAARRMIE” as the sequence, how does the protein production read?
Its protein production is “failed”.

Which protein production does the source give for “MEFLGSLLTFLIDIVGSFGYFGILLIVGLEYACFPLPSEVVLTFFGLSASQGEFSLIGVIIFSIIGGLLGSLICYAIGYYGGVPLQEWLGRKFPSSQKSMLALNKWFKKYGKPAVLLARIVPLTRTYVSLLAGAEKFSLKYFILYSSLGISIWNIFLVSLGYFIGDNLPLINSIMEKYTFVTLAILIIAVIIFIYLKFFKKEKNTSK” here?
Its protein production is “failed”.

For “MEFLSLVIVVVAAFMTPIIVHRFNINFLPVVVAEILMGIVIGHSFLNLVERDAFLNILSTLGFIFLMFLSGLEIDFNAFKKDSRPRQGEDKHEKDVPGHLKLALTVFAFIMMISVVLAFAFKWLGLVNDVLLMVIIISTISLGVVVPTLKEMNIMRTTIGQFILLVAVLADLFTMILLTVYGAIYGEGGSTIWLTGILVVFTVVFYVIGVLFKRMSFLQKLMDGTTQIGIRAVFALIILLVALAEGVGAEYILGAFLAGVVVSLLKPNEEMVEKLDSFGYGFFIPIFFIMVGVDLDIPSLIKEPSLLLIIPVLIFSFIISKLIPVFYIRRWFDTKTTIASAFLLTSTLSLVIAAAKIAEKLKAISPETSGILILSAVITCVFVPVIFKKMFPIPNEVGRRIEVSMIGKNQLTIPIAQNLTSQLYDISLYYRKDLSDSRKLSDDITMIEIADYEEDLLERLGLFERDIVVCSTNDDHINKSVALMAKKHGVKRVICRLESTNEDPTLKHQGIEVFSNYLSNKILLKSLIETPNMLNLLSNVETSLYEIQMLNYQYENIQLRNFPFGGDIIFVRIIRDNDSIVPHGDTQLRYKDRLIVTGTKEYVDELKQELEFYY”, which protein production is on record?
The protein production was “failed”.

For “MEFNQFGQPIGHAIQQPIPGKFKAQSLIGNDVNLVLIEQDRVALKNVEQLWDCIKTEPDERCWTYLPYEAPETFRQLEYNLKRNFGFEPSFHYWIMVEGQAVGWIALMNLREQHAAVEIGNVYFSHRLKQTAAATEVIYLLLNHCFEQGLRRIEWKCDDLNGPSKRAALRFGFVYEGLFRQDRVSKGRNRDTTWFSIIDSEWASLKTAYLQWLNPDNFNHAGKQKKRLEDFIVT”, which protein production is on record?
Its protein production is “failed”.

Which protein production does the source give for “MEFQLWGAKIVIEPKPDLRYLYLEITNRCNLKCEMCFKQYWEDKEGDMDWDLFLKILDDAKEFPELKMIYFGGIGEPSVHPRFMDMVREVKRRGFRLGMSTNGVLLEDKILEEFVKLGVDVVYFSMDAIPTPSNIVTLGHITSKVVESRIKKLVELKKRYKTEKPTIGVEVVATKENYKQLPEMAIYLRNLGVDSMLISNLIPMTKEHSKAIVYDGSVDMTPIVNELHQIAEGGPFMRIAEFKLRTNRYCDFIENNVTVVRWDGEVFPCYRFLHTYPEVIFGREKKVIAHSFGNVKEKSLKDIWMSEEYVRFRFLVKASAYPSCIDCPLNTSCSFALDTTQDCWGTSPSCGDCLWSRGIVLCPIPFEYMGKFL” here?
Its protein production is “failed”.

With “MEFQSTVVATVDCQKQVRSWRLLRSFIQLLIPTCNCTLVQELEQDNTNLRGKKLYNDIKSRTSSFRSSSSLSSSTVTGTIFGYRKGKINFCIQTPRKSTNLDLLLELAVPTTVLAREMREGALRIVLERNNEKQDDDSFLSKPFWNMYCNGKRVGYARKRSPSQDDMTALTALSKVVVGAGVVTGKELGRFDDELMYLRASFRRVNGSKESESFHLIDPAGNIGQELSIFIVPSSV” as the sequence, how does the protein production read?
Its protein production is “failed”.

With “MEFSLIADTVTVCTAKQGIAFGKSLLQRLDLANHISFADSVVDHQSPGGGIVQASAIIFPVDAIAPPPVRSSSYKTIRRIRKKRRTRRVSFGGDGDDAGDFGRFLLEGDFGGSDGPFGFGGGGNDGGGKGWNYGGGGGGFGRDNWDGSSFSSWSDPAMEFVYEVICWIALSNCVHFAFKRIVRIVTDGEREKLNIALSPVC” as the sequence, how does the protein production read?
The protein production was “failed”.

For “MEGLESVYAQAMYGMTRESKIMEHQGSDLIWGGNELMARELCSSSSYHHQLINPNLSSCFMSDLGVLGEIQQQQHVGNRASSIDPSSLDCLLSATSNSNNTSTEDDEGISVLFSDCQTLWSFGGVSSAESENREITTETTTTIKPKPLKRNRGGDGGTTETTTTTTKPKSLKRNRGDETGSHFSLVHPQDDSEKGGFKLIYDENQSKSKKPRTEKERGGSSNISFQHSTCLSDNVEPDAEAIAQMKEMIYRAAAFRPVNFGLEIVEKPKRKNVKISTDPQTVAARQRRERISEKIRVLQTLVPGGTKMDTASMLDEAANYLKFLRAQVKALENLRPKLDQTNLSFSSAPTSFPLFHPSFLPLQNPNQIHHPEC”, which protein production is on record?
Its protein production is “failed”.

For “MEHIEIRVSATGSMSSFHALCSFHQWPINVACSCWLSHCYRIYSLYPPQLVSCSDRLSTSGNTNAGAEFVTE”, which protein production is on record?
The protein production was “failed”.

With “MEHSNLRKKHNYKFTISTLTLSCLMAFNAQAAVDCSPLEAWDAGKVYNGGEEVKQGTNAYKAKYWTQNNDPATAGEWGAWQDLGVCSGEVPNEAPTVDLTSPSATEQLTTGDLVTLTASAADSDGNIVRVDFSVDGVVISSVTASPYSTTWTALEGNHTISAQSYDDKGAQSTVSSVAINVTNTPTDNIAPTATLSLSATNVELGSVVTLTADAVDSDGTIDKVDFYIDNTLVGTAATAPYTLQYTTTAVGSLSVYAKATDNLGATANSASTNLTVTSSLPVADNCRPDGLYQTEGVTVPYCTIYDKEGREKMGADHPRRVIGYFTSWRDGGDEQNSYLVKDIPWEQLTHINYAFVSIGSDGKVNVGDVTDPNNAATGKEWAGVEIDPALGFKGHFGALATAKAKHGVKTLISIGGWAETGGHFGADGNRVADGGFYTMTTNADGSINHAAIEKFAVSAVEMMRKYKFDGLDIDYEYPTSMAGAGNPDDKEFMEPRRQYLWASYQVLMKTLREKLDVASAQDDIHYMLTIAAPSSGYLLRGMETFDVTQYLDYVNIMSYDLHGAWNDHVGHNAALYDTGKDSELAQWNVYGTEAYGGIGYLNTDWAYHYFRGSMPAGRINIGVPYYTRGWQGVTGGENGLWGRAPLPDQAKCEPGTGEGEKNNCGYGALGIDNMWHDKNSYGQEMGAGSNPMWHAKNLQEGIFGSYANIYGLDPANDPADQLVGTYTRHYDSVAVAPWLWNAEKKVFLSTEDKDSINVKADYVIDQEIGGIMFWELAGDYSCYVLDSNGNRTSVDATEAACQTGNGEYHMGNTMTKAIYEKFKSATPYGNTVATGAIPTETVDIAVNVGGFKVGDQNYPINPKVTFTNNTGQDIPGGTEFQFDIPVSAPDNAKDQSGGGLQVIASGHTRPNNIGGLDGTMHRVAFTLPAWKALPAGGVYELDMVYYLPISGPANYTVNINNVDYAFKFEQPDLPLADLSSGGNNGGNGGTPDAGCDATGLVTYPDLPQKDWAGNPSHANTGDQVVHNNVIYQANWWTAAEPGSDGSWTKVCNL” as the sequence, how does the protein production read?
Its protein production is “failed”.

For “MEIEQQQPLPSERGLSPVARRALIGAITGCFVLGGVLMLLPPAGREPAAPPAPAAGPMAGPVAQAKAAVGAGVPVALPALAALVTDHETHLRAHPRDARSWAVLGAAYVAQGKGTADAAYFPKAEEALRTSLNVAPRRNAEALGALAALANARGDYREAKQWGEAAVKMAPKQWPAYAQLIDAYDGLGDYKATGKTLDKLLGLRAGPAAAARAAQVYRARGWREDAAAAIADATARAGSPAEQAVYWQQAGELAWERGEPEQALRYFETALRTDPDRHAALAGQGRALAALGRTSDAVNAYRAALAKQPLAAYAVELGELYESQGLGGAAQVQYYLVRERVRQDAAGGVNNRLVVGQFEADHGDAEVAVRELREEWKRQPSIRVADALGWALHRAGQDQEALGFATKAMDKEHGGGVRSALYAYHRGEIERALDQLAPARRHLAEALRINPHFSPWFAPMAKETLAELGEPPAEGLPGDEEVEAAEAEAAEAAEAAQTPEAAESVDPAQTEQVPPPGASTPVPQEPEAR”, which protein production is on record?
Its protein production is “failed”.

With “MEIEVKFRVNFEDIKRKIEGLGAKFFGIEEQEDVYFELPSPKLLRVRKINNTGKSYITYKEILDKRNEEFYELEFEVQDPEGAIELFKRLGFKVQGVVKKRRWIYKLNNVTFELNRVEKAGDFLDIEVITSNPEEGKKIIWDVARRLGLKEEDVEPKLYIELING” as the sequence, how does the protein production read?
Its protein production is “not failed”.
